According to patent publication CN112442122A (SHANGHAI NOVAMAB BIOPHARMACEUTICALS CO LTD, dated 2021):

Columns and labels:
[1] = molecular target: T1, 人PD-1 (on CHOZn/PD-1 stably transfected cells) (human, UniProt Q15116 25-288); experiment: flow cytometry; binding to CHOZn/PD-1 cells, anti Human IgG-FITC detection
T1 construct: whole, on cells; also called hPD-1; GS-J2/PD-1

[2] = molecular target: T1, 人PD-1 (on CHOZn/PD-1 stably transfected …); experiment: flow cytometry; competition with 50ug/ml hPD-L1-Biotin on CHOZn/PD-1 cells

T1 sequence (Q15116 25-288): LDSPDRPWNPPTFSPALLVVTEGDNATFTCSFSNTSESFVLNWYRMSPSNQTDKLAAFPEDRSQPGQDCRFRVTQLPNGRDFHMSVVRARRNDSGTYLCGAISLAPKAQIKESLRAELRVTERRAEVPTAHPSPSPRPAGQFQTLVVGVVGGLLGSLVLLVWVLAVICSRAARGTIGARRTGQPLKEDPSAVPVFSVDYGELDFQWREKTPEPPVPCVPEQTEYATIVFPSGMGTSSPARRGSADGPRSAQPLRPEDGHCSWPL

B1: PD-1Nb-Fc融合蛋白 (Fc fusion)
chain: QVQLQESGGGSVQAGGSLRLSCAASGYTYSSYYMGWFRQAPGKEREGVAAIDRDGRTSYADSVKGRFTISRDNAKNTLYLQMNSLKPEDTAMYTCAAVLVLSGYYSDYGLVPPPFEYNYWGQGTQVTVSS
notes: also called PD-1纳米抗体; not shown: IgG4 Fc supplied by the pFUSE-IgG4 vector (Invivogen)
- EC50 [1]: 1.06 µg/mL
- IC50 [2]: 1.3 µg/mL
